# Substitutions are numbered along the chain they refer to. Numbers in names are those of the source.
# B1: 2C2 Fab (Fab, V domains shown)
# VH: EVQLLESGGGLVQPGGSLRLSCAASGFTFSYYYMQWVRQAPGKGLEWVSYIGSSGGVTNYADSVKGRFTISRDNSKNTLYLQMNSLRAEDTAVYYCARVGLGDAFDIWGQGTMVTVSS
# VL: QSVLTQPPSASGTPGQRVTISCSGSLSNIGLNYVSWYQQLPGTAPKLLISRNNQRPSGVPDRFSGSKSGTSASLAISGLRSEDEADYYCAAWDDSPPGEAFGGGTKLTVL
# notes: Fab expressed in E. coli (pET26b, pelB signal peptide); also called Fab fragment of 2C2; Fab 2C2
# B2: S23R Fab (Fab, V domains shown)
# VH: B1 VH
# VL: B1 VL with S23R
# notes: 2C2 Fab variant with serine to arginine at residue 23 of the light chain (CDR1); also called S23R Fab antibody
# B3: S25H Fab (Fab, V domains shown)
# VH: B1 VH
# VL: B1 VL with S25H
# notes: 2C2 Fab variant with serine to histidine at residue 25 of the light chain (CDR1), made by QuikChange mutagenesis; also called S25H Fab antibody
# B4: 2C2 antibody (whole antibody used in the examples was 2C2-YTE) (antibody, V domains shown)
# VH: B1 VH
# VL: B1 VL
# notes: Whole anti-ErbB3 antibody of WO 2013/078191
# Tests used:
# [1] = target: T1, ErbB3 extracellular domain, His-tagged (human, UniProt P21860 20-643); experiment: SPR (BIAcore T100, 25 C), 2C2 Fab immobilised on CM5 chip, ErbB3 ECD in flow
# T1 construct: Expressed in baculovirus-infected Sf9 cells and de-glycosylated for crystallography; also called ErbB3-ECD; ErbB3 ECD; not shown: C-terminal hexa-histidine tag, told in words only
# [2] = target: T2, ErbB3 domain III, His-tagged (human, UniProt P21860 329-521); experiment: SPR (BIAcore T100, 25 C), 2C2 Fab immobilised on CM5 chip, ErbB3 domain III in flow
# T2 construct: also called purified domain III; D3; not shown: His tag
# [3] = target: T1, ErbB3 extracellular domain, His-tagged; experiment: SPR (BIAcore T100), Fab immobilised on a CM5 chip, ErbB3-ECD passed over in rising concentrations, long dissociation, 1:1 binding model
# [4] = target: T3, ErbB3 domain II, His-tagged (human, UniProt P21860 202-328); experiment: ELISA, His-tagged ErbB3 domain II coated on the plate, 2C2 titrated, HRP anti-human secondary antibody, chemiluminescence
# T3 construct: also called D2; not shown: His tag
# [5] = target: T4, cell-surface expressed ErbB3 (Homo sapiens (Human), UniProt P21860 20-1342); experiment: flow cytometry, Alexa-647-labelled 2C2 titrated on BaF3 cells co-expressing ErbB2 and ErbB3, on ice; single-site binding isotherm
# T4 construct: also called HER3
# [6] = target: T5, ErbB3 domain IV, His-tagged (human, UniProt P21860 522-643); experiment: ELISA, His-tagged ErbB3 domain IV coated on the plate, 2C2 titrated, HRP anti-human secondary antibody, chemiluminescence
# T5 construct: also called D4; not shown: His tag
# [7] = target: T6, ErbB3 domain I, His-tagged (human, UniProt P21860 20-201); experiment: ELISA, His-tagged ErbB3 domain I coated on the plate, 2C2 titrated, HRP anti-human secondary antibody, chemiluminescence
# T6 construct: also called D1; not shown: His tag
# [8] = target: T2, ErbB3 domain III, His-tagged; experiment: ELISA, His-tagged ErbB3 domain III coated on the plate, 2C2 titrated, HRP anti-human secondary antibody, chemiluminescence
binder,measurement,setting,value
B1,Kd,[1],0.166 nM
same,Kd,[2],0.377 nM
B2,koff,[3],8.3e-05 s⁻¹
B3,koff,[3],5.5e-05 s⁻¹
B4,binding result,[4],no binding (tested: about 60 nM (log nM about 1.8))
same,Kd,[5],0.08 nM
same,binding result,[6],no binding (tested: about 60 nM (log nM about 1.8))
same,binding result,[7],no binding (tested: about 60 nM (log nM about 1.8))
same,EC50 (read off the curve),[8],~0.5 nM

# Reference: patent publication US20170240648A1 (KOLLTAN PHARMACEUTICALS, published 2017)
